In US7329728:

Key:
Test in all cases: cell-based or functional assay
Cf2-PBD-VP64 (human) = Cf2-PBD-VP64 (human) (UniProt P06401)
ER-VP64 (mouse) = ER-VP64 (mouse) (UniProt P19785)
ER-KRAB (mouse; human) = ER-KRAB (mouse; human) (UniProt P19785)
Sequence of ER-KRAB (mouse; human) (P19785 other isoform, or with tags, fused parts or gaps): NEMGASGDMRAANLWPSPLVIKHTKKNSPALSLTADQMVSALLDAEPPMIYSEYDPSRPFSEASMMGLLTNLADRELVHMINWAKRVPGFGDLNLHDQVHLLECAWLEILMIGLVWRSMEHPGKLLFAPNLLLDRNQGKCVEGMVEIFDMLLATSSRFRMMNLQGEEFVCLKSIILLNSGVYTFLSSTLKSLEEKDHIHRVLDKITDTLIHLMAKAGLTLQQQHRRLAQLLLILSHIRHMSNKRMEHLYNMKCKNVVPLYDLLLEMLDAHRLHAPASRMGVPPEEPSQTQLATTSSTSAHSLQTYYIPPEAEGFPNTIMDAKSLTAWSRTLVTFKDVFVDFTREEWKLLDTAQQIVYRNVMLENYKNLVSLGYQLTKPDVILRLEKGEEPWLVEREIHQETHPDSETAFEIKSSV

Sequence of ER-VP64 (mouse) (P19785 282-599 G525R): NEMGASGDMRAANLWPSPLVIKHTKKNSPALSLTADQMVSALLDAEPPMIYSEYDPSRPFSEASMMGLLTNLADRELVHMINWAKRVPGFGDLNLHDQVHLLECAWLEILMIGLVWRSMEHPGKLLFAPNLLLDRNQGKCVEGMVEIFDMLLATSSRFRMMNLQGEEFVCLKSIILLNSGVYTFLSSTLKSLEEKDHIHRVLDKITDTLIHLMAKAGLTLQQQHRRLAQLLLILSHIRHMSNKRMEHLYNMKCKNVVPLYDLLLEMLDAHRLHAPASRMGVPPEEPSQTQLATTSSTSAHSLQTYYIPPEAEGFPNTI
Sequence of Cf2-PBD-VP64 (human) (P06401 640-914): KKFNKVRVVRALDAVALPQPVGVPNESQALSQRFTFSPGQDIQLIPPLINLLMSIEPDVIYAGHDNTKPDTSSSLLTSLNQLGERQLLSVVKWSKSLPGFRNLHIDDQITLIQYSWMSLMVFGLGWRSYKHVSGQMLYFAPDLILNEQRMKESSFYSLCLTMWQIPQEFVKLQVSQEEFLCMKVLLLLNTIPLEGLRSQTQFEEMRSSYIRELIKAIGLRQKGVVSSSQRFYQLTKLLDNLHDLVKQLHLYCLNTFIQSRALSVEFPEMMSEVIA
Sequence of C7-PBD-VP64 (P06401 640-914): as above

| Substance | ligand-dependent change in transcription of a C7-Cf2 TATA luciferase reporter (Cf2-PBD-VP64 (human)) [fold] | erbB-2 promoter luciferase activity in HeLa cells, on addition of Tamoxifen (ER-VP64 (mouse)) [fold] | tamoxifen-dependent repression of the erbB-2 promoter (luciferase) (ER-KRAB (mouse; human)) [fold] |
| --- | --- | --- | --- |
| C7-PBD-VP64 (from UniProt P06401 640-914) | 2 | – | – |
| E2C-ER (from UniProt P19785 282-599) | – | 3 | 2.9 |
